# Results as given in patent US20160271244A1.
# Columns and labels:
# HCV E2 (HCV) = test: Luminex assay, antibody 50 µg/ml
# [1] = molecular target: Influenza HA (Wisconsin) (influenza virus); test: Luminex assay, antibody 50 µg/ml
# Histone [2] = test: Athena autoantigen assay, mAb 25 ug/ml
# Jo 1 [3] = test: Athena autoantigen assay, mAb 25 ug/ml
# RNP [4] = test: Athena autoantigen assay, mAb 25 ug/ml
# SSA [5] = test: Athena autoantigen assay, mAb 25 ug/ml
# SSB [6] = test: Athena autoantigen assay, mAb 25 ug/ml
# Sequence of SSB (P05455 whole entry): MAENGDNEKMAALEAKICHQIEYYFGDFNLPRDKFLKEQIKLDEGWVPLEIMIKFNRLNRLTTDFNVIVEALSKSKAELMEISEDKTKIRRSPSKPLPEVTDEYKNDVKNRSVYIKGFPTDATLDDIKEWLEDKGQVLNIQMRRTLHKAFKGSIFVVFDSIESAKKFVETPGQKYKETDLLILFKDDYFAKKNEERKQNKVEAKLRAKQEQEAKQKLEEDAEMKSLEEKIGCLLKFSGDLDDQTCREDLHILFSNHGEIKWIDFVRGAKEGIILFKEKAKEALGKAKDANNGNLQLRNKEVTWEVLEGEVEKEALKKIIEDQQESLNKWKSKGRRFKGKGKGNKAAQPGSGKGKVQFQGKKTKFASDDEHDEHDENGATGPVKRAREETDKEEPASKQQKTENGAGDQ
# Scl 70 [7] = test: Athena autoantigen assay, mAb 25 ug/ml
# Sm [8] = test: Athena autoantigen assay, mAb 25 ug/ml
# Histone [9] = test: Athena autoantigen assay, mAb 50 ug/ml
# RNP [10] = test: Athena autoantigen assay, mAb 50 ug/ml
# Histone [11] = test: Athena autoantigen assay, mAb 12.5 ug/ml
# Jo 1 [12] = test: Athena autoantigen assay, mAb 12.5 ug/ml
# RNP [13] = test: Athena autoantigen assay, mAb 12.5 ug/ml
# SSA [14] = test: Athena autoantigen assay, mAb 12.5 ug/ml
# SSB [15] = test: Athena autoantigen assay, mAb 12.5 ug/ml
# Scl 70 [16] = test: Athena autoantigen assay, mAb 12.5 ug/ml
# Sm [17] = test: Athena autoantigen assay, mAb 12.5 ug/ml
# Histone [18] = test: Athena autoantigen assay, mAb 6.25 ug/ml
# Jo 1 [19] = test: Athena autoantigen assay, mAb 6.25 ug/ml
# RNP [20] = test: Athena autoantigen assay, mAb 6.25 ug/ml
# SSA [21] = test: Athena autoantigen assay, mAb 6.25 ug/ml
# SSB [22] = test: Athena autoantigen assay, mAb 6.25 ug/ml
# Scl 70 [23] = test: Athena autoantigen assay, mAb 6.25 ug/ml
# Sm [24] = test: Athena autoantigen assay, mAb 6.25 ug/ml
# [25] = molecular target: Env (gp120) of HIV-1 7165.18.N160K (HIV-1); test: cell-based or functional assay
# [26] = molecular target: Env (gp120) of HIV-1 JRCSF.N160K (HIV-1) (UniProt P20871); test: cell-based or functional assay
# [27] = molecular target: Env (gp120) of HIV-1 JRFL.E168K (HIV-1); test: cell-based or functional assay
# [28] = molecular target: Env (gp120) of HIV-1 JRFL.N160K.E168K (HIV-1); test: cell-based or functional assay
# [29] = molecular target: Env (gp120) of HIV-1 Q23.17.N160K (HIV-1); test: cell-based or functional assay
# [30] = molecular target: Env (gp120) of HIV-1 isolate 7165.18 (HIV-1); test: cell-based or functional assay
# [31] = molecular target: Env (gp120) of HIV-1 isolate JRCSF (HIV-1) (UniProt P20871); test: cell-based or functional assay
# [32] = molecular target: Env (gp120) of HIV-1 isolate JRFL (virus) (HIV-1); test: cell-based or functional assay
# [33] = molecular target: Env (gp120) of HIV-1 isolate Q23.17 (HIV-1); test: cell-based or functional assay
# [34] = molecular target: HV00044 (6240 TZ5 140C) (HIV-1); test: surface plasmon resonance; five sensorgrams with fitted curves, highest rising to about 650 RU with almost no dissociation up to 1000 s
# HIV-1 Env gp41 (HIV-1) = HIV-1 Env gp41 (HIV-1) (UniProt P05877); test: Luminex bead assay
# [35] = molecular target: gp120 (Table 2, strain not given); test: Luminex bead assay
# [36] = molecular target: recombinant human kynureninase (rhKYNU) (human) (UniProt Q16719); test: ELISA on plate-bound rhKYNU, antibody titrated
# Sequence of recombinant human kynureninase (rhKYNU) (human) (Q16719 whole entry): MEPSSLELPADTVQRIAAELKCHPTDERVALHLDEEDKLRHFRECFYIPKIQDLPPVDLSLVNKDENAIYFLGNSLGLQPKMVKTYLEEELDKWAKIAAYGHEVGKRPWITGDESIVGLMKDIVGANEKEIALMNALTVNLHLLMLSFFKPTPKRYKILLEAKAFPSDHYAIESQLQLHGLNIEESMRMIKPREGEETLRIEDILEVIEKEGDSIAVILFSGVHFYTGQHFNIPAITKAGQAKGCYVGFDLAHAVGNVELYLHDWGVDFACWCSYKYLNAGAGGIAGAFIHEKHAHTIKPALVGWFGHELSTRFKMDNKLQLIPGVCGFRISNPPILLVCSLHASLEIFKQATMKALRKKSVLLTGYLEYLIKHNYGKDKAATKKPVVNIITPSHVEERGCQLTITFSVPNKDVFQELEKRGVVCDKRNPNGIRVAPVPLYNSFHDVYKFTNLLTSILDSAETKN
# [37] = molecular target: recombinant human kynureninase (rhKYNU) (human) (UniProt Q16719); test: ELISA on plate-bound rhKynureninase, antibody titrated
# [38] = molecular target: recombinant human kynureninase (rhKYNU) (human) (UniProt Q16719); test: ELISA on plate-bound rhKYNU, 2F5 titrated (overlay with DP178-Q16L)
# [39] = molecular target: membrane conjugated gp41-inter; test: SPR, gp41-inter held by Ni on liposomes captured on the chip, mAb injected; bivalent analyte fit [left panel]
# Sequence of Jo 1 (P12081 2-509): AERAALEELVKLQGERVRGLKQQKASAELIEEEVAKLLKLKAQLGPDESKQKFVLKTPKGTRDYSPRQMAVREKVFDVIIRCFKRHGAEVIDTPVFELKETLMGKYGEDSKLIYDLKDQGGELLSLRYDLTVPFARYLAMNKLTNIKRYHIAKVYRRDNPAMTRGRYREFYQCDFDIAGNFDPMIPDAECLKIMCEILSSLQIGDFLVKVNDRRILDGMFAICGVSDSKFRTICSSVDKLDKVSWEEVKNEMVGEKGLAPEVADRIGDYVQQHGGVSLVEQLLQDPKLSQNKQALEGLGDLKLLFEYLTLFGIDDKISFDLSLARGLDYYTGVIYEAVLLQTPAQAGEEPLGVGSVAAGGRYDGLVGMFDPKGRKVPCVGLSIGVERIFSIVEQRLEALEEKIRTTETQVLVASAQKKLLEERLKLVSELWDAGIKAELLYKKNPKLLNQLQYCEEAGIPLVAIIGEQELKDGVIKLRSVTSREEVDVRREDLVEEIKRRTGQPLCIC
substance,measurement,setting,value
CH03 (antibody),background subtracted RFUs,HCV E2 (HCV),2910 RFU
same,background subtracted RFUs,[1],1 RFU
same,Athena autoreactivity score,Histone [2],386
same,Athena autoreactivity score,Jo 1 [3],4
same,Athena autoreactivity score,RNP [4],70
same,Athena autoreactivity score,SSA [5],6
same,Athena autoreactivity score,SSB [6],4
same,Athena autoreactivity score,Scl 70 [7],7
same,Athena autoreactivity score,Sm [8],10
same,Athena autoreactivity score,Histone [9],844
same,Athena autoreactivity score,RNP [10],132
same,Athena autoreactivity score,Histone [11],359
same,Athena autoreactivity score,Jo 1 [12],4
same,Athena autoreactivity score,RNP [13],74
same,Athena autoreactivity score,SSA [14],6
same,Athena autoreactivity score,SSB [15],6
same,Athena autoreactivity score,Scl 70 [16],8
same,Athena autoreactivity score,Sm [17],9
same,Athena autoreactivity score,Histone [18],231
same,Athena autoreactivity score,Jo 1 [19],3
same,Athena autoreactivity score,RNP [20],51
same,Athena autoreactivity score,SSA [21],5
same,Athena autoreactivity score,SSB [22],5
same,Athena autoreactivity score,Scl 70 [23],4
same,Athena autoreactivity score,Sm [24],7
PG9 (antibody),IC50 (virus neutralization),[25],> 50 µg/mL
same,IC80 (virus neutralization),[25],> 50 µg/mL
same,IC50 (virus neutralization),[26],> 50 µg/mL
same,IC80 (virus neutralization),[26],> 50 µg/mL
same,IC50 (virus neutralization),[27],0.008 µg/mL
same,IC80 (virus neutralization),[27],0.055 µg/mL
same,IC50 (virus neutralization),[28],> 50 µg/mL
same,IC80 (virus neutralization),[28],> 50 µg/mL
same,IC50 (virus neutralization),[29],> 50 µg/mL
same,IC80 (virus neutralization),[29],> 50 µg/mL
same,IC50 (virus neutralization),[30],> 50 µg/mL
same,IC80 (virus neutralization),[30],> 50 µg/mL
same,IC50 (virus neutralization),[31],0.003 µg/mL
same,IC80 (virus neutralization),[31],0.008 µg/mL
same,IC50 (virus neutralization),[32],> 50 µg/mL
same,IC80 (virus neutralization),[32],> 50 µg/mL
same,IC50 (virus neutralization),[33],0.002 µg/mL
same,IC80 (virus neutralization),[33],0.005 µg/mL
same,background subtracted RFUs,HCV E2 (HCV),0 RFU
same,background subtracted RFUs,[1],0 RFU
same,Kd,[34],750 pM
CH05 (antibody),background subtracted RFUs,HCV E2 (HCV),1.3 RFU
same,background subtracted RFUs,[1],5.5 RFU
17b original (CCR5 binding site antibody),Reactivity in Luminex Units (Luminex units),HIV-1 Env gp41 (HIV-1),1430
Synagis (anti-RSV control mAb) (antibody),background subtracted RFUs,HCV E2 (HCV),0.5 RFU
same,background subtracted RFUs,[1],1 RFU
2F5 (antibody),Reactivity in Luminex Units (Luminex units),HIV-1 Env gp41 (HIV-1),32700
same,Reactivity in Luminex Units (Luminex units),[35],9240
same,EC50 (read off the curve),[36],0.05 µg/mL
same,EC50 (read off the curve),[37],0.03 µg/mL
same,EC50 (read off the curve),[38],0.05 µg/mL
same,Kd,[39],210 pM
same,koff,[39],9e-06 s⁻¹
